Measurements taken from article PMC10879843.

Biological target: metabotropic glutamate receptor 5 (mouse (endogenous in brain cortex)) (UniProt Q3UVX5)
Test: co-IP; mGluR5 immunoprecipitated with rabbit anti-mGluR5 on protein G magnetic beads from brain cortex lysates of 1 month-old WT and SPKO (synaptopodin knockout) mice; 20 mM Tris-HCl pH 7.4, 5 mM EDTA, 100 mM NaCl, 1% Triton X-100; overnight at 4 °C; immunoblot with anti-pan-Homer

Sequence of UniProt Q3UVX5 (Q3UVX5 19-1203): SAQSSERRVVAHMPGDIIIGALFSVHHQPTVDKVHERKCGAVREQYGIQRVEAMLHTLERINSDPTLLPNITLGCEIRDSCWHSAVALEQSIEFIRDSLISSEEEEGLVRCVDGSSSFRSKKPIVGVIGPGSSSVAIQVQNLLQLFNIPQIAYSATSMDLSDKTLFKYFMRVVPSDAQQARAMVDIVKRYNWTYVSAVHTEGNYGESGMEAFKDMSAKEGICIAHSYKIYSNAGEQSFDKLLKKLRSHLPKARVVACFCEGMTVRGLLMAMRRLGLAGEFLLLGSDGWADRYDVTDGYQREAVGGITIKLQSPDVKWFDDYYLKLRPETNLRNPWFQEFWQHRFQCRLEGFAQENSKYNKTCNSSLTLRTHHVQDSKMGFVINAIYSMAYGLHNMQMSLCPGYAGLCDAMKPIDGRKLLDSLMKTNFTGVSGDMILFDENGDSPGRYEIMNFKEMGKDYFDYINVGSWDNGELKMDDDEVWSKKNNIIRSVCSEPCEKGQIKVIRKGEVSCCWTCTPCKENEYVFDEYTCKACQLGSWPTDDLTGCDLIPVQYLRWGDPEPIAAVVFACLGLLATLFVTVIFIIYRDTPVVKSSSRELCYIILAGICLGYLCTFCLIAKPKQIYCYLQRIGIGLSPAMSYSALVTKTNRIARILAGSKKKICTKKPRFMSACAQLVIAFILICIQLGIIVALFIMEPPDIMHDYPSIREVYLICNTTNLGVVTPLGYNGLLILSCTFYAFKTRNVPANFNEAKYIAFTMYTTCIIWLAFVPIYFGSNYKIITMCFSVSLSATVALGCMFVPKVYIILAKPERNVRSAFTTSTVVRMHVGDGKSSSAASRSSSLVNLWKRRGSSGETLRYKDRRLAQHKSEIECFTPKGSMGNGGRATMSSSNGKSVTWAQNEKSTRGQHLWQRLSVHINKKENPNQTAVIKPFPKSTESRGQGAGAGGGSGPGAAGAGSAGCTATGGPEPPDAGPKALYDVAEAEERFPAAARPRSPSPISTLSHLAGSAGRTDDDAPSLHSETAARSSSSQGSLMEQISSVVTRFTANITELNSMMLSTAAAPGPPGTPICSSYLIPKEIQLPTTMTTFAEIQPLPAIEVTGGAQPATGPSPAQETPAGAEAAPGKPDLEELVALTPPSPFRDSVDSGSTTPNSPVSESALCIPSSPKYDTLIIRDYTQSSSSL

- coprecipitated Homer, SPKO/WT ratio: 0.4
Substance: Homer (long form) (from UniProt Q9Z2Y3 1-366) (natural protein)
